Experimental data as given in article PMC8362221.

Target: Idelvion (commercial albumin-fused factor IX) (human) (UniProt P02768)
Assay: SPR

Kd: 0.15 µM
Substance: soluble monomeric human neonatal Fc receptor, His-tagged (hFcRn‐His) (from UniProt P55899;P61769)
